Measurements as given in patent publication US20260132217A1 (UNIVERSITE D AIX MARSEILLE, published 2026).

Target: T1, membrane CD146 on cells (U87, U373, HUVEC) (human, UniProt P43121 24-646)
T1 construct: whole, on cells; also called MCAM; membranous CD146
T1 sequence (looked up): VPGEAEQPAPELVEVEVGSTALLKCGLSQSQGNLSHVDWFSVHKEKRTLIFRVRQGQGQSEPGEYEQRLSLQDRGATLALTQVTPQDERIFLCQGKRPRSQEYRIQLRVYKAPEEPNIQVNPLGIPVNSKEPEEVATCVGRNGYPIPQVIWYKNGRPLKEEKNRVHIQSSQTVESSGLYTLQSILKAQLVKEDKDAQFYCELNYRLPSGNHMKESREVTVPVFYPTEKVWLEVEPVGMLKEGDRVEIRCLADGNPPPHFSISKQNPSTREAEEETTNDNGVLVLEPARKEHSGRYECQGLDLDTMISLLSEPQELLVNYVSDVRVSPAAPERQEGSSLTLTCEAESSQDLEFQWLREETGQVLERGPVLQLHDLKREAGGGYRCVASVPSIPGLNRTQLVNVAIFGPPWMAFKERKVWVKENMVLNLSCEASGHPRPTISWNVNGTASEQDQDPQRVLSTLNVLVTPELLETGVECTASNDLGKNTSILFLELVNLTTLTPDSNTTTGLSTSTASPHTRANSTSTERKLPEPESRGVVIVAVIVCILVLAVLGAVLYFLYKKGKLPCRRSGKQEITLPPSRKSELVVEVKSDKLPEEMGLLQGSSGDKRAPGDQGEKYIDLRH
Test: co-immunoprecipitation with anti-CD146 antibody S-Endo1 from U87 cells (reproduced in U373), western blot
Description: Non-confluent U373 cells were used for immunoprecipitation with IgG or anti-CD146 antibody. Western-blotting was then carried out using antibodies directed against VEGFR2, CD146 and integrin subunits αv and β3. Membrane receptor EPcam was used as a negative control (A). U373 cells transfected or not with siRNA targeting β3 integrin were stimulated for 25 min with sCD146 or VEGF, and CD146 was immunoprecipitated before western blotting was done using antibody directed against total phospho-tyrosine (B). Control, CD146-KO, VEGFR2-KO or β3-KO U87 cells were stimulated for 25 min with either sCD146 or VEGF. Lysates were then subjected to western-blotting and membranes were probed with either anti-phospho β3 Y759 (C) or anti-phospho VEGFR2 Y1054 (D). Average of 3 experiments is shown; *P<0.05, **P<0.01, ***p<0.001, experimental vs control.
Briefly, cells were grown on plates and treated as a function of the experiment, then washed in PBS, scraped off the plates and extracted with 300 μl of ice-cold RIPA buffer (150 mM NaCl, 50 mM Tris HCl, pH 7.4, 2.4 mM EDTA, 1% Nonidet P40, 0.5 mM phenylmethylsulfonyl fluoride, supplemented with protease and phosphatase inhibitor (A32959)) for 30 min at 4° C. After centrifugation (12,000 g, 10 min, 4° C.) to eliminate cell debris and nuclei, the Pierce™ BCA protein assay kit was used to quantify protein concentration. […]

B1: EPCAM on cells (U87, U373) (other, human, UniProt P16422 24-314, looked up)
chain: QEECVCENYKLAVNCFVNNNRQCQCTSVGAQNTVICSKLAAKCLVMKAEMNGSKLGRRAKPEGALQNNDGLYDPDCDESGLFKAKQCNGTSMCWCVNTAGVRRTDKDTEITCSERVRTYWIIIELKHKAREKPYDSKSLRTALQKEITTRYQLDPKFITSILYENNVITIDLVQNSSQKTQNDVDIADVAYYFEKDVKGESLFHSKKMDLTVNGEQLDLDPGQTLIYYVDEKAPEFSMQGLKAGVIAVIVVVVIAVVAGIVVLVISRKKRMAKYEKAEIKEMGEMHRELNA
notes: whole, on cells
Q: Does B1 bind?
A: no binding
